Laboratory results taken from US20100209346A1.

Columns and labels:
Assay in all cases: dot blot; antigen dilution series 100-0.01 pmol on nitrocellulose
[1] = molecular target: Aβ(1-42) fibril preparation of example 27 (human)
[2] = molecular target: Aβ(1-42) oligomer B preparation of example 6b (oligomers of human amyloid β(1-42) protein with apparent molecular weights of 38 kDa and 48 kDa) (human)
[3] = molecular target: HFIP-treated Aβ(1-42) monomer of example 1a (human)

Q: Which detection limit (minimum amount of antigen visible) [1] does the source give for monoclonal antibody 6E10 (Signet) here?
A: 1 pmol

Q: What about the detection limit (minimum amount of antigen visible) [2] of the same substance?
A: 0.1 pmol

Q: What about the detection limit (minimum amount of antigen visible) [3] of the same substance?
A: 0.1 pmol
